The supplement of paper PMC9170038

Tested on: MS2 coat protein
Test: apparent KD of MS2 coat protein; higher = weaker reporter binding
Conditions: Eterna round: R107
Summary of the method: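 On-chip transcription from Illumina sequencing clusters produced the designed RNA switches. These were titrated with SNAP-549-labelled MS2 coat protein (twofold steps, 0.7 or 1.5 nM to 3 µM) in 100 mM Tris-HCl pH 7.5, 80 mM KCl, 4 mM MgCl2, with or without constant ligand. The apparent KD given is the per-design median of normalised cluster binding-curve fits.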

[1] = input ligand: theophylline 20 uM
[2] = input ligand: theophylline 2 mM
[3] = input ligand: tryptophan 2.4 mM

Row | Sequence | apparent KD of MS2 coat protein (input ligand: arginine 13.2 mM) [nM] | apparent KD of MS2 coat protein (input ligand: none) [nM] | apparent KD of MS2 coat protein [1] [nM] | apparent KD of MS2 coat protein [2] [nM] | apparent KD of MS2 coat protein [3] [nM]
1 | AUAACAUGAGGAUCACCCAUGUAAGCUGAAGGAGCGGACGAAAGUCCAGGUAGGUCGCAGCACUCCUUCAACAUGGGAGAGGGAG [(M1)-(M2)-(Arg1)-(Arg2)-(A)'-(M)'-(A)''_Design1] | 39.9 | 64.2 | 59.8 | 72.5 | 53.2
2 | ACAUGAGGAUCACCCAUGUGCCGUCUUGAUACCAGACCCGAAGUAGUCCCUUGGCAGCAACUACGUGAGGGUCGCCCAUGUGUAG [5kullin] | 16.1 | 14.5 | 22.2 | 16.7 | 13.7
3 | AUGCUUAUCAGAAGGAGCGUCAUUAACAUGAGGAUCACCCAUGUAACAUUGAAUUCGAUGAGACAGGUAGGUCGCUGAAUAGUAA [SS-ArgB27] | 28 | 45.1 | 51.5 | 41.3 | 37.5
4 | AAAAUCCUACCUGAGGAUCACCCUGGUGAAGGAGCGCCCGAAAGGGCAGGUAGGUCGCACCUGAGGAUCACCCGGGUAACCUAAA [ArgEX 14 #DoubleMS2 #OpenEnded #AlternativeMS2] | 78.7 | 170 | 139 | 200 | 151
5 | GGAUAGGACAGAAGGAGCGUGAGAUGCAAAGCUUCAUUCCUCACAUGAGGAUCACCCAUGUCACAGGUAGGUCGCUGUCCUAUCG [#19 Exclusion - Arginine B] | 78.6 | 102 | 106 | 111 | 78.9
6 | ACGUCAACCCUUAUGUUGAUGCAAGACGAUACCAGCCUGGAUACAGGCCCUUGGCAGCGUCAACAUGAGGAUCACCCAUGUAAUA [(T)''-(MT)'-(Theo)-(Ms2)] | 32.2 | – | 261 | – | 45.3
7 | GAGUAGAGGACGGCCGCCACUAAACAUGAGGAUCACCCAUGUCGUGAUCCGUUACCUAGGGUAGAUAGGACCGGGUCAUGUAGUC [Exclusion Tryptophan B GF 17] | 47.7 | – | 65.8 | 84.7 | –
8 | UACAUGAGGAUCACCCAUGUAUUGCCGGUACGAGGACCGGUACGGCCGCCACUCGGGACAUGAGGAUCACCCAUGUGCUGCUAUU [Same State Trypophan A GF 23] | 28.7 | 44.4 | 49.8 | 42.4 | 45.8
9 | UUAUAAGUACCGGUCCUCAGAUCCUCAUGACGAGGACCGGUACGGCCGCCACUCGAAACAUGAGGAUCACCCAUGUAAUAACAUU [Brourdmod19] | 18.9 | – | 28.8 | 25.6 | –
10 | AAUAUAAGUGUAAUUAUAUUUAUAUCUGAUACCAGACUCUCAUGUGUCCCUUGGCAGCAGUUACAUGAGGAUCACCCAUGUAUUA [JR_Nu_SSTheophyA_Sub025] | 30.6 | – | 67.6 | – | 73.7
11 | AUGUCCUAAACGGCCGCCACUUACAUGAGGAUCACCCAUGUUUACCGAUAUGGUUGUUGCUUUCCAAGGACCGGGUUUAAUCUGC [theeternabot_exclusion_MS2_Trp_B_49] | 13.1 | – | 14.9 | 12.7 | –
12 | ACAUUUAACUGAAGGAGCGUGAUAAACAUGAGGAUCACCCAUGUACCAAAGAUUUUCAGUUCACAGGUAGGUCGCAGACUAAUGA [JR_ExcArginiB_Sub016] | 10.6 | 11.1 | 13.8 | 11.5 | 10.8
13 | AAUCGUAAGGCGGCCGCCACUACACAUGAGGAUCACCCAUGUCUCGCAGGCUUGCGUUGGGUUAGUAGGACCGGGCCAGUAAUAA [Exclusion - Tryptophan B (Freestyle 15)] | 25.8 | 32.1 | 43.2 | 37 | 34.5
14 | GGCGCUGCGUCGGCCGCCACUAGUGGGUAAUGGGUGUACAUGAGGAUCACCCAUGUAUUUUGGCCUAGGACCGGGACGUGGCGCC [Oxen] | 81.9 | – | 455 | 570 | –
15 | GAUGAACUAUAUGAUACCAGACAACAUGAGGAUCACCCAUGUGAUUGUCGUCCUCUGCCUGUCCCUUGGCAGCGUAUAGUUUAUC [XTheo B #16] | 38.4 | – | 87.4 | – | 23.4
16 | ACAAGUCCUCAUGAUACCAGCGAUGAGACAAAGUCUCAACAUGAGGAUCACCCAUGUACUCGCCCUUGGCAGCAUACGGUUUUUG [Onedxequla] | 139 | – | 373 | – | 573
17 | GCUGCCAUACGAAGGAGCGCUGUUGCAAUGAGGCGAACAUGAGGAUCACCCAUGUGGCAAAAGCAGGUAGGUCGCGUAUGGCAGC [EAB #17] | 20.4 | 20.5 | 29.3 | 23.4 | 20.2
18 | UCCUUAGAUACUGAUACCAGACUACAGUAAACAUGAGGAUCACCCAUGUUUGAUCACUAAGUCCCUUGGCAGCAGGUACAUGGGA [Theo B SS r1] | 12.6 | – | 12.9 | – | 11.9
19 | AGAACAAAACUAAAUAAACAACUGGGUGAUACCAGCACAUGUGCGUGCCCUUGGCAGCAUCCGGCCACAUGAGGAUCACCCAUGU [Inarar] | 42.6 | – | 95.6 | – | 62.7

Row | Sequence | apparent KD of MS2 coat protein (input ligand: arginine 13.2 mM) [nM] | apparent KD of MS2 coat protein (input ligand: none) [nM] | apparent KD of MS2 coat protein [1] [nM] | apparent KD of MS2 coat protein [2] [nM] | apparent KD of MS2 coat protein [3] [nM]
20 | UGCAUCAUAAUCAUGUAGGUGCUAGGUGAUACCAGCAUCGAAAGAUGCCCUUGGCAGCACCAACAUGAGGAUCACCCAUGUAAUA [(MT)''-(M)'-(T')-(Theo)-(Ms2)_Design1/22_1] | 48.4 | – | 186 | – | 231
21 | ACGUUCGCGGUAUCCAACCGGUUGUACAAACGAGGACCGGUACGGCCGCCACUCGUGAUUGUACAUGAGGAUCACCCAUGUGGCA [theeternabot_exclusion_MS2_Trp_A_28] | 18.7 | – | 34.1 | 28.1 | –
22 | UGAUACCAGUCGGCCGCCACUAUGCUAGAUACUAGCAAUAAAGGGCGACAUGAGGAUCACCCAUGUAGGACCGGGACUGGUAUCU | – | – | 14.1 | 12 | –
23 | AAUGUAUGGCACAUGAGGAUCACCCAUGUGCGAGGACCGGUACGGCCGCCACUCGGUCGUGGGUUCUUAUUACUAUACAUUAAUG [XTryp A #14] | 11.4 | – | 12.8 | 11.6 | –
24 | UUUAGUCAAUCGGCCGCCACUGACAUGAGGAUCACCCAUGUAGGUAAGGAUCAACCUCGAAAGUACAGGACCGGGAUUCGCCUCU [theeternabot_exclusion_MS2_Trp_B_45] | 51.7 | – | 67.6 | 65 | –
25 | UUUUUUAUCAUGGCGUAUCGGAAAACCGAUACCAGUACAGAAAUGUACCCUUGGCAGCGGCGUUUUACAUGAGGAUCACCCAUGU [Ex Theophylline A 4] | 15.1 | – | 23.7 | – | 14.9
26 | GCACGGGCGAUCGGCACUUUUACUAAUAUACGAGGACCGGUACGGCCGCCACUCGAGCUAAGACAUGAGGAUCACCCAUGUAACG [theeternabot_exclusion_MS2_Trp_A_41] | 22 | – | 30 | 30.4 | –
27 | ACUUGAUACUGAAGGAGCGUCGGAUAAACUCGCACAUGAGGAUCACCCAUGUAUAUGAAUCGGCAGGUAGGUCGCAGUAUCGAGU [#21 Same State - Arginine B] | 14.8 | 15.6 | 20.4 | 17.1 | 15.4
28 | CUCCCGUGGUCGGCCGCCACUGGAGGCCUCGCGCGACAUGAGGAUCACCCAUGUUGGCCCGGCCUCAGGACCGGGAUCGCGUGAG [#1 Same State - Tryptophan B Attempt #7 (HarryS)] | 11.2 | 13.7 | 17.9 | 11.9 | 10.9
29 | UGUUUUUAUCGAAGGAGCGCCGCAUGAGGAUCACCCAUGCACAUGAGGAUCACCCAUGUCUGGCAGGUAGGUCGCGAUCAAUGGG [Same State Arginine B GF 11] | 33.7 | 41.9 | 48.7 | 47.9 | 44.3
30 | UGUAACAUGAGGAUCACCCAUGUAAGUGAUACCAGAUAAGUAGUAGUCCCUUGGCAGCAUAUUGGGCAAGUGUAUAGUCUAUACG [Same State - Theophylline A (Freestyle 6)] | 43 | – | 65.3 | – | 48.3
31 | ACAUGAGGAUCACCCAUGUACAUCACCCGACGAGGACCGGUACGGCCGCCACUCGGGUAUAUAUUUACAUCGGGUGAUUUUACGU [#23 Tryptophan A Same State] | 21.9 | – | 81.2 | 115 | –
32 | AUGUCGUUGAAUAUAGCGGCUUGGAGUGAUACCAGAAUGAUCUAAUUCCCUUGGCAGCAUUACAUGAGGAUCACCCAUGUUCCAG [SSTheo A #22] | 27.8 | – | 57.4 | – | 55.5
33 | UCAUGCAGGUCGGCCGCCACUACACACAUGAGGAUCACCCAUGUAGUUACUGGGUGAAGUGGCAGUAGGACCGGGACCUGCACAC [Brourdmod17] | 155 | 504 | 632 | 849 | 1090
34 | AAUGUAUUCCACAUGAGGAUCACCCAUGUGCGAGGACCGGUACGGCCGCCACUCGGUGUUGGGAUCAGUUCUGAAUACAUUAAUG [XTryp A #24] | 19.1 | – | 19.2 | 20.5 | –
35 | AAGAUAAGUACUGAUACCAGAGACAUGAGGAUCACCCAUGUCAAAUAAUAAUACCUCAGACUCCCUUGGCAGCAGGAUAAAUGAG [Exclusion Theophylline B GF1] | 10.9 | 11.7 | 19.9 | 19.2 | 12.1
36 | ACAUGAGGAUCACCCAUGUAAGAUGCAGAAGGAGCGGGAAAUAACCCAGGUAGGUCGCUGCGGUUUGGAUUAUUGUGUUCGUGAA [#08 Exclusion - Arginine A] | 11.6 | 12.1 | 18.8 | 13.8 | 12.5
37 | AUAAUGGGUAUCGGAUUAUCAUGAUAUGAUACCAGAUACUUAGAUAUCCCUUGGCAGCAUGAGGACAUGAGGAUCACCCAUGUAU [#04 Exclusion-TheophyllineA] | 32.1 | – | 50.3 | – | 39.9
